The test has as its target T1, SARS-CoV-2 spike receptor binding domain (RBD) (SARS-CoV-2, UniProt P0DTC2 319-541).
T1 construct: domain: RBD

Results on one molecule are retold here after patent US20230280343A1 (NEW YORK UNIVERSITY, published 2023).

In the case of GDLAPQMLRELQETNAALQDVRELLRQQVKEITFLKNTVMECDACGKLN (other, also called parent protein C; ccCOMP) [coiled-coil domain of the cartilage oligomeric matrix protein (C)], the binding result is “no binding”.
